Assay results as given in patent CN110305214A.

Target: 人CD47 (human CD47) (human) (UniProt Q08722)
Assay: FACS competition on CHOK1 cells stably transfected with human CD47; competitor 1 μg/ml human SIRPα-His

Sequence of UniProt Q08722 (Q08722 19-323): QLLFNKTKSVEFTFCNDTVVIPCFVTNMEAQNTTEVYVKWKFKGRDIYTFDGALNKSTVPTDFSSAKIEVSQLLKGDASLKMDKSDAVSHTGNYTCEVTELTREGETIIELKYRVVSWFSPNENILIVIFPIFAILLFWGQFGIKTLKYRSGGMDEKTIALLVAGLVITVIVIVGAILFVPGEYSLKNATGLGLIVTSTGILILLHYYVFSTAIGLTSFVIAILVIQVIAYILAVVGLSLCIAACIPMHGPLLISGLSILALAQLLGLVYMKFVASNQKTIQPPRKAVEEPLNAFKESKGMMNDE

阻断率	Binder
> 90%	W3452-1.164.16-z11-IgG1K (antibody, V domains shown) VH: QVQLQESGPGLVKPSETLSLTCTVSGFSLTNYHVYWIRQPPGKGLEWIGVMWNHGDTSYNSPLKSRVTISVDTSKSQFSLKLSSVTAADTAVYYCARGGYVPDYWGQGTMVTVSS VL: DIVMTQSPLSLPVTPGEPASISCRSSQSLVHSNAKTYLHWYLQKPGQSPQLLIYRVSNRFSGVPDRFSGSGSGTDFTLKISRVEAEDVGVYYCLQTTHFPYTFGQGTKLEIK
> 90%	W3452-2.683.2-z27-IgG1L (antibody, V domains shown) VH: EVQLVESGGGLVQPGRSLRLSCAASGFTFSTYGMAWVRQAPGKGLEWVSSISTSGGSTYYRDSVQGRFTISRDNAKSSLYLQMNSLRAEDTATYYCTTKGGRTYRLAYWGQGTLVTVSS VL: SYELMQPPSVSVSPGQTARITCSGIELSNKYAHWYQQKPGQAPVEVMYKDSERPSGIPERFSGSRSGTTVTLTISGVQAEDEADYYCLSTNSDDDLPVFGGGTKLTVL
> 90%	W3452-2.683.2-z27-IgG4PE,L (antibody, V domains shown) VH: EVQLVESGGGLVQPGRSLRLSCAASGFTFSTYGMAWVRQAPGKGLEWVSSISTSGGSTYYRDSVQGRFTISRDNAKSSLYLQMNSLRAEDTATYYCTTKGGRTYRLAYWGQGTLVTVSS VL: SYELMQPPSVSVSPGQTARITCSGIELSNKYAHWYQQKPGQAPVEVMYKDSERPSGIPERFSGSRSGTTVTLTISGVQAEDEADYYCLSTNSDDDLPVFGGGTKLTVL
